Experimental data: article doi:10.1101/2020.08.27.270991 (bioRxiv, 2020)

Tests used:
[1] = molecular target: full-length Thermus thermophilus MgtE (Thermus thermophilus, UniProt Q5SMG8); assay: ITC
cryo-EM structure = molecular target: the molecule itself; assay: cryo-EM structure
cross-linking = molecular target: the molecule itself; assay: cross-linking

B1: Fab antibody fragment Fab705 (Fab, V domains shown)
VH: EVKLQESGVELVKPGASVKISCKASGYSFTGYNMNWVKQSHGKSLEWIGNISPYYGTSIYNQNFKGKATLTVDRSSSTAYMQLNSLTSEDSAVYYCARGESFSNYEGYYAMDYWGQGTSVIVSS
VL: DVLMTQTPLSLPVSLGDQASISCRSSQSLVHSDGNTYLHWYLQKPGQSPKLLIYKVSNRFSGVPDRFSGSGSGTDFTLKISRVEAEDLGVYFCSQSTHVPWTFGGGTKLEIK
Binder B1 has a Kd [1] of 253 ± 71.1 nM.

B2: full-length Thermus thermophilus MgtE (natural protein, UniProt Q5SMG8 1-450, looked up)
chain: MEEKLAVSLQEALQEGDTRALREVLEEIHPQDLLALWDELKGEHRYVVLTLLPKAKAAEVLSHLSPEEQAEYLKTLPPWRLREILEELSLDDLADALQAVRKEDPAYFQRLKDLLDPRTRAEVEALARYEEDEAGGLMTPEYVAVREGMTVEEVLRFLRRAAPDAETIYYIYVVDEKGRLKGVLSLRDLIVADPRTRVAEIMNPKVVYVRTDTDQEEVARLMADYDFTVLPVVDEEGRLVGIVTVDDVLDVLEAEATEDIHKLGAVDVPDLVYSEAGPVALWLARVRWLVILILTGMVTSSILQGFESVLEAVTALAFYVPVLLGTGGNTGNQSATLIIRALATRDLDLRDWRRVFLKEMGVGLLLGLTLSFLLVGKVYWDGHPLLLPVVGVSLVLIVFFANLVGAMLPFLLRRLGVDPALVSNPLVATLSDVTGLLIYLSVARLLLEAV
In the case of B2, the “stoichiometry N” value (cryo-EM structure) is reported as 2.

B3: MgtE double cysteine mutant T336C/L421C (natural protein, Thermus thermophilus, UniProt Q5SMG8 1-450, looked up)
chain: MEEKLAVSLQEALQEGDTRALREVLEEIHPQDLLALWDELKGEHRYVVLTLLPKAKAAEVLSHLSPEEQAEYLKTLPPWRLREILEELSLDDLADALQAVRKEDPAYFQRLKDLLDPRTRAEVEALARYEEDEAGGLMTPEYVAVREGMTVEEVLRFLRRAAPDAETIYYIYVVDEKGRLKGVLSLRDLIVADPRTRVAEIMNPKVVYVRTDTDQEEVARLMADYDFTVLPVVDEEGRLVGIVTVDDVLDVLEAEATEDIHKLGAVDVPDLVYSEAGPVALWLARVRWLVILILTGMVTSSILQGFESVLEAVTALAFYVPVLLGTGGNTGNQSACLIIRALATRDLDLRDWRRVFLKEMGVGLLLGLTLSFLLVGKVYWDGHPLLLPVVGVSLVLIVFFANLVGAMLPFLLRRLGVDPACVSNPLVATLSDVTGLLIYLSVARLLLEAV
B3: binds (cross-linking).
